Laboratory results: article PMC7484505, “Uncoupling sodium channel dimers restores the phenotype of a pain‐linked Nav1.7 channel mutation” (British Journal of Pharmacology, 2020)

B1: hNav1.7^GFP (natural protein)
chain: not shown
notes: numbers count on: isoform 3; pCMV6-neo-hNav1.7, Klugbauer et al. 1995; also called hNav1.7/WT; source: X. laevis oocytes, cRNA injected, in detergent extract (cleared supernatant); not shown: GFP, C-terminal, kept
B2: hTRPV1^GFP (natural protein, human, UniProt Q8NER1-1 1-839, looked up)
chain: MKKWSSTDLGAAADPLQKDTCPDPLDGDPNSRPPPAKPQLSTAKSRTRLFGKGDSEEAFPVDCPHEEGELDSCPTITVSPVITIQRPGDGPTGARLLSQDSVAASTEKTLRLYDRRSIFEAVAQNNCQDLESLLLFLQKSKKHLTDNEFKDPETGKTCLLKAMLNLHDGQNTTIPLLLEIARQTDSLKELVNASYTDSYYKGQTALHIAIERRNMALVTLLVENGADVQAAAHGDFFKKTKGRPGFYFGELPLSLAACTNQLGIVKFLLQNSWQTADISARDSVGNTVLHALVEVADNTADNTKFVTSMYNEILMLGAKLHPTLKLEELTNKKGMTPLALAAGTGKIGVLAYILQREIQEPECRHLSRKFTEWAYGPVHSSLYDLSCIDTCEKNSVLEVIAYSSSETPNRHDMLLVEPLNRLLQDKWDRFVKRIFYFNFLVYCLYMIIFTMAAYYRPVDGLPPFKMEKTGDYFRVTGEILSVLGGVYFFFRGIQYFLQRRPSMKTLFVDSYSEMLFFLQSLFMLATVVLYFSHLKEYVASMVFSLALGWTNMLYYTRGFQQMGIYAVMIEKMILRDLCRFMFVYIVFLFGFSTAVVTLIEDGKNDSLPSESTSHRWRGPACRPPDSSYNSLYSTCLELFKFTIGMGDLEFTENYDFKAVFIILLLAYVILTYILLLNMLIALMGETVNKIAQESKNIWKLQRAITILDTEKSFLKCMRKAFRSGKLLQVGYTPDGKDDYRWCFRVDEVNWTTWNTNVGIINEDPGNCEGVKRTLSFSLRSSRVSGRHWKNFALVPLLREASARDRQSAQPEEVYLRQFSGSLKPEDAEVFKSPAASGEK
notes: human TRPV1, transcript variant 3, subcloned from pDONR201 into pNKS2; Used as mass marker on the native gel; calculated mass of the GFP-tagged protomer printed as 123 kDa; also called human TRPV1 (transient receptor potential cation channel subfamily V member 1); source: X. laevis oocytes, cRNA injected, in digitonin extract (cleared supernatant); not shown: GFP, C-terminal, kept

Biological target: the molecule itself
Assay: native gel or EMSA; hrCN-PAGE of digitonin extracts of cRNA-injected X. laevis oocytes (0.1 M sodium phosphate pH 8.0, 1 mM TCEP), non-denaturing conditions; GFP tags visualised by fluorescence scanning; masses judged against hTrpV1-GFP

Protein | stoichiometry N
B1 | 2
B2 | 4
